Laboratory results published in the supplement of paper PMC10567573.

B1: GLTSCR2 (parent)
chain: FQRRNMIEPRERAKFKRKYKVKLV
B2: INTS4 (parent)
chain: TIIEPAGESDNPLRFTSGLVVALD

Variants of: B1
Experiment: protein stability index of a GFP-peptide fusion (GPS, HEK-293T) (PSI 1-6); higher = more stable
Conditions: c terminus: a fixed tail appended
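Further: lentivirally expressed fusions sorted by FACS into six bins by GFP to DsRed ratio, PSI derived from sequencing read proportions per bin multiplied by bin number.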

Variant | protein stability index
FQRRNMIEPRERAKFKRKYKAKLV | 2.67
FQRRNMIEPRERAKFKRKYKNKLV | 2.87
FQRRNMIEPRERAKFKRKYKTKLV | 3.07
FQRRNMIEPRERAKFKRKYKDKLV | 3.31
FQRRNMIEPRERAKFKRKYKQKLV | 2.81
FQRRNMIEPRERAKFKRKYKFKLV | 2.55
FQRRNMIEPRERAKFKRKYKWKLV | 2.44
FQRRNMIEPRERAKFQRKYKVKLV | 1.87
FQRRNMIEPRERAKFMRKYKVKLV | 2.07
FQRRNMIEPRERAKFCRKYKVKLV | 1.87
FQRRNMIEPRERAKFTRKYKVKLV | 2.29
FQRRNMIEPRERAKFKRKYKVKRV | 3.21
FQRRNMIEPRERAKFKRKYKVKIV | 2.52
FQRRNMIEPRERAKFKRKYKVKDV | 3.1
FQRRNMIEPRERAKFKRKYKVKNV | 2.75
FQRRNMIEPRERAKFKRKYKVKAV | 2.72
FQRRNMIEPRERAKFKRKYKVKTV | 2.25
FQRRNMIEPRIRAKFKRKYKVKLV | 1.6
FQRRNMIEPRWRAKFKRKYKVKLV | 2.81
FQRRNMIEPRHRAKFKRKYKVKLV | 2.18
FQRRNMIEPRDRAKFKRKYKVKLV | 2.53
FQRRNMIEPRTRAKFKRKYKVKLV | 2.59
FQRRNMIEPRERAKFKRKYKVALV | 1.93
FQRRNMIEPRERAKFKRKYKVTLV | 1.89
FQRRNMIEPRERAKFKRKYKVQLV | 2.38
FQRRNMIEPRERAKFKRKYKVGLV | 2.97

Variant | protein stability index
FQRRNMIEPRERAKFKRKYKVPLV | 2.38
FQRRNMIEPRERAKFKRKYKVWLV | 1.67
FQRRNMIEPRERAKFKMKYKVKLV | 2.94
FQRRNMIEPRERAKFKLKYKVKLV | 2.45
FQRRNMIEPRERAKFKHKYKVKLV | 1.89
FQRRNMIEPRERAKFKCKYKVKLV | 2.18
FQRRNMIEPRERAKFKPKYKVKLV | 2.46
FQRRNMIEPRERAKFKTKYKVKLV | 2.56
CQRRNMIEPRERAKFKRKYKVKLV | 2.69
YQRRNMIEPRERAKFKRKYKVKLV | 2.51
PQRRNMIEPRERAKFKRKYKVKLV | 3.05
TQRRNMIEPRERAKFKRKYKVKLV | 3.11
RQRRNMIEPRERAKFKRKYKVKLV | 3.03
AQRRNMIEPRERAKFKRKYKVKLV | 3.04
KQRRNMIEPRERAKFKRKYKVKLV | 2.96
HQRRNMIEPRERAKFKRKYKVKLV | 2.69
FCRRNMIEPRERAKFKRKYKVKLV | 1.99
FVRRNMIEPRERAKFKRKYKVKLV | 1.57
FTRRNMIEPRERAKFKRKYKVKLV | 2.65
FQRNNMIEPRERAKFKRKYKVKLV | 2.7
FQRVNMIEPRERAKFKRKYKVKLV | 3.02
FQRKNMIEPRERAKFKRKYKVKLV | 1.95
FQRRNMAEPRERAKFKRKYKVKLV | 2.15
FQRRNMHEPRERAKFKRKYKVKLV | 1.87
FQRRNMSEPRERAKFKRKYKVKLV | 3.04
FQRRNMEEPRERAKFKRKYKVKLV | 2.22

Variant | protein stability index
FQRRNMLEPRERAKFKRKYKVKLV | 1.99
FQRRNMPEPRERAKFKRKYKVKLV | 2.25
FQRRNMMEPRERAKFKRKYKVKLV | 2.67
FQRRNMKEPRERAKFKRKYKVKLV | 2.1
FQRRNMDEPRERAKFKRKYKVKLV | 3.27
FQRRNMVEPRERAKFKRKYKVKLV | 2.24
FQRRNMIEPRERAKNKRKYKVKLV | 2.69
FQRRNMIEPRERAKKKRKYKVKLV | 3.05
FQRRNMIEPRERAKGKRKYKVKLV | 2.96
FQRRNMIEPRERAKMKRKYKVKLV | 2.76
FQRRNMIEPRERAKLKRKYKVKLV | 3.05
FQRRNMIEPRERAKPKRKYKVKLV | 2.44
FQRRNMIEPREMAKFKRKYKVKLV | 2.69
FQRRNMIEPREYAKFKRKYKVKLV | 1.79
FQRRNMIEPREQAKFKRKYKVKLV | 2.43
FQRRNMIEPRENAKFKRKYKVKLV | 2.45
FQRRNMIEPRELAKFKRKYKVKLV | 1.79
FQRRNMIEPRERAKFKRYYKVKLV | 1.71
FQRRNMIEPRERAKFKRFYKVKLV | 1.61
FQRRNMIEPRERAKFKRRYKVKLV | 2.32
FQRRNMIEPRERAKFKRAYKVKLV | 2.25
FQRRNMIEPRERAKFKREYKVKLV | 2.39
FQRRNMIEPRERAKFKRCYKVKLV | 2.05
FQRRNMIEPRERAKFKRVYKVKLV | 2.78
FQRRNMIEPRERAKFKRGYKVKLV | 1.98
FQRRNMIEPRERAKFKRLYKVKLV | 1.72

Variant | protein stability index
FQRRNMIEPRERAKFKRKYEVKLV | 3.17
FQRRNMIEPRERAKFKRKYGVKLV | 2.22
FQRRNMIEPRERAKFKRKYPVKLV | 1.95
FQRRNMIEPRERAKFKRKYSVKLV | 2.74
FQRRNMIEPRERAKFKRKYWVKLV | 2.04
FQRRNMIEPRERAKFKRKYTVKLV | 2.34
FQRRNMIEPRERAKFKRKYCVKLV | 1.93
FQRRNMIEPRERAKFKRKYVVKLV | 1.99
FQRRNMIEPRERAKFKRKYQVKLV | 1.93
FQRRNMIEPRERAKFKRKYFVKLV | 2.52
FQRRNMIEPRERAKFKRKYIVKLV | 2.07
FQRRNMIEPRERADFKRKYKVKLV | 2.09
FQRRNMIEPRERAHFKRKYKVKLV | 2.03
FQRRNMIEPRERASFKRKYKVKLV | 2.3
FQRRNMIEPRERARFKRKYKVKLV | 2.02
FQRRNMIEPRERAWFKRKYKVKLV | 2.85
FQRRNMIEPRERAGFKRKYKVKLV | 1.39
FQRRNMIEPRERATFKRKYKVKLV | 2.33
FQRRNMIEPRERAMFKRKYKVKLV | 1.97
FQRRNMIEPRERAKFKRKYKVKLM | 2.25
FQRRNMIEPRERAKFKRKYKVKLE | 2.96
FQRRNMIEPRERAKFKRKYKVKLL | 1.92
FQRRNMIEPRERAKFKRKYKVKLK | 3.09
FQRRNMIEPRERAKFKRKYKVKLT | 2.93
FQRRNMIEDRERAKFKRKYKVKLV | 2.15
FQRRNMIEARERAKFKRKYKVKLV | 3.52

Variant | protein stability index
FQRRNMIEVRERAKFKRKYKVKLV | 2.19
FQRRNMIEHRERAKFKRKYKVKLV | 2.47
FQRRNMIEMRERAKFKRKYKVKLV | 2.06
FQRRNMIEFRERAKFKRKYKVKLV | 2.4
FQRRNMIENRERAKFKRKYKVKLV | 2.34
FQRRNMIEPRERLKFKRKYKVKLV | 2.29
FQRRNMIEPRERVKFKRKYKVKLV | 3.38
FQRRNMIEPRERTKFKRKYKVKLV | 2.03
FQRRNMIEPRERNKFKRKYKVKLV | 3.21
FQRRNMIEPRERIKFKRKYKVKLV | 2.13
FQRRNMIEPRERPKFKRKYKVKLV | 2.02
FQRRNMIEPRERYKFKRKYKVKLV | 2.68
FQRRNNIEPRERAKFKRKYKVKLV | 2.27
FQRRNHIEPRERAKFKRKYKVKLV | 2.33
FQRRNTIEPRERAKFKRKYKVKLV | 3.15
FQRRNRIEPRERAKFKRKYKVKLV | 2.92
FQRRMMIEPRERAKFKRKYKVKLV | 2.5
FQRRCMIEPRERAKFKRKYKVKLV | 2.62
FQRRSMIEPRERAKFKRKYKVKLV | 2.02
FQRRAMIEPRERAKFKRKYKVKLV | 2.59
FQRRRMIEPRERAKFKRKYKVKLV | 2.56
FQRRDMIEPRERAKFKRKYKVKLV | 2.23
FQRRNMIEPKERAKFKRKYKVKLV | 2.28
FQRRNMIEPDERAKFKRKYKVKLV | 2.58
FQRRNMIEPLERAKFKRKYKVKLV | 2.47
FQRRNMIEPAERAKFKRKYKVKLV | 2.56

Variant | protein stability index
FQRRNMIEPSERAKFKRKYKVKLV | 2.13
FQSRNMIEPRERAKFKRKYKVKLV | 1.65
FQHRNMIEPRERAKFKRKYKVKLV | 1.93
FQKRNMIEPRERAKFKRKYKVKLV | 2.6
FQGRNMIEPRERAKFKRKYKVKLV | 2.17
FQERNMIEPRERAKFKRKYKVKLV | 2.69
FQTRNMIEPRERAKFKRKYKVKLV | 1.79
FQRRNMIFPRERAKFKRKYKVKLV | 1.82
FQRRNMIVPRERAKFKRKYKVKLV | 2.25
FQRRNMISPRERAKFKRKYKVKLV | 2.04
FQRRNMIMPRERAKFKRKYKVKLV | 2.34
FQRRNMIGPRERAKFKRKYKVKLV | 2.18
FQRRNMITPRERAKFKRKYKVKLV | 2.05
FQRRNMIWPRERAKFKRKYKVKLV | 1.91
FQRRNMIKPRERAKFKRKYKVKLV | 2.35
FQRRNMIAPRERAKFKRKYKVKLV | 2.7
FQRRNMIEPRERAKFKRKWKVKLV | 2.39
FQRRNMIEPRERAKFKRKSKVKLV | 2.88
FQRRNMIEPRERAKFKRKDKVKLV | 3.03
FQRRNMIEPRERAKFKRKNKVKLV | 2.94
FQRRNMIEPRERAKFKRKRKVKLV | 3.5
FQRRNMIEPRERAKFKRKTKVKLV | 2.37
FQRRNMIEPRERAKFKRKHKVKLV | 2.93

Variants of: B2
Experiment: as above
Conditions: c terminus: a fixed tail appended

Variant | protein stability index
WIIEPAGESDNPLRFTSGLVVALD | 2.23
KIIEPAGESDNPLRFTSGLVVALD | 2.68
EIIEPAGESDNPLRFTSGLVVALD | 2.68
GIIEPAGESDNPLRFTSGLVVALD | 3.82
CIIEPAGESDNPLRFTSGLVVALD | 2.38
PIIEPAGESDNPLRFTSGLVVALD | 3.06
HIIEPAGESDNPLRFTSGLVVALD | 3.23
RIIEPAGESDNPLRFTSGLVVALD | 2.32
MIIEPAGESDNPLRFTSGLVVALD | 1.68
IIIEPAGESDNPLRFTSGLVVALD | 2.2
YIIEPAGESDNPLRFTSGLVVALD | 2.08
LIIEPAGESDNPLRFTSGLVVALD | 1.83
FIIEPAGESDNPLRFTSGLVVALD | 1.83
NIIEPAGESDNPLRFTSGLVVALD | 3.36
DIIEPAGESDNPLRFTSGLVVALD | 3.21
AIIEPAGESDNPLRFTSGLVVALD | 2.45
VIIEPAGESDNPLRFTSGLVVALD | 2.23
QIIEPAGESDNPLRFTSGLVVALD | 2.96

Variant | protein stability index
SIIEPAGESDNPLRFTSGLVVALD | 3.41
TLIEPAGESDNPLRFTSGLVVALD | 3.48
TSIEPAGESDNPLRFTSGLVVALD | 3.48
TMIEPAGESDNPLRFTSGLVVALD | 3.38
TDIEPAGESDNPLRFTSGLVVALD | 4.21
TAIEPAGESDNPLRFTSGLVVALD | 3.71
TTIEPAGESDNPLRFTSGLVVALD | 3.21
TRIEPAGESDNPLRFTSGLVVALD | 3.67
TGIEPAGESDNPLRFTSGLVVALD | 3.51
TCIEPAGESDNPLRFTSGLVVALD | 2.84
TFIEPAGESDNPLRFTSGLVVALD | 3.8
THIEPAGESDNPLRFTSGLVVALD | 3.18
TPIEPAGESDNPLRFTSGLVVALD | 3.9
TQIEPAGESDNPLRFTSGLVVALD | 3.22
TNIEPAGESDNPLRFTSGLVVALD | 3.9
TKIEPAGESDNPLRFTSGLVVALD | 2.89
TEIEPAGESDNPLRFTSGLVVALD | 3.86
